This is an account of results in publication PMC9714371, “Haemophilus influenzae Protein D antibody suppression in a multi‐component vaccine formulation” (FEBS Open Bio, 2022).

The stoichiometry N is a count of units in the complex or per binding partner.

This data set concerns the molecule itself. The data set is described as follows: native MS; nano-electrospray native MS with ion mobility (Waters Synapt G2); His-tagged proteins in 200 mM ammonium acetate pH 6.8, 5 μM; PD alone, OMP26 alone, 1:1 mixture.

Several values for one entry are separate records, joined by “and”; a condition that tells them apart may be missing. Equal entries are not always repeated.

B1: His‐tagged outer membrane protein 26 (OMP26) (natural protein)
chain: EEKIAFINAGYIFQHHPDRQAVADKLDAEFKPVAEKLAASKKEVDDKIAAARKKVEAKVAALEKDAPRLRQADIQKRQQEINKLGAAEDAELQKLMQEQDKKVQEFQAQNEKRQAEERGKLLDSIQTATNNLAKAKGYTYVLDANSIVFAVEGKDITEEVLKSIPASEKAQEKK
notes: OMP26, 26-kDa outer membrane protein of Haemophilus influenzae, homolog of E. coli Skp; Gene bought from GenScript; Predominantly trimers by native MS and SEC, with hexamers in low abundance; also called His‐tagged OMP26; source: E. coli BL‐21*, IPTG induced; not shown: His6, N-terminal, kept
Take B1: the “stoichiometry N” value was 3 and 6.

B2: His‐tagged Protein D (non‐lipidated, N‐terminal signal sequence removed) (natural protein)
chain: CSSHSSNMANTQMKSDKIIIAHRGASGYLPEHTLESKALAFAQHSDYLEQDLAMTKDGRLVVIHDHFLDGLTDVAKKFPYRHRKDGRYYVIDFTLKEIQSLEMTENFETKDGKQAQVYPNRFPLWKSHFRIHTFEDEIEFIQGLEKSTGKKVGIYPEIKAPWFHHQNGKDIATETLKVLKKYGYDKKTDMVYLQTFDFNELKRIKTELLPQMGMDLKLVQLIAYTDWKETQEKDPKGYWVNYNYDWMFKPGAMAEVVKYADGVGPGWYMLVNKEESKPDNIVYTPLVKELAQYNVEVHPYTVRKDALPEFFTDVNQMYDALLNKSGATGVFTDFPDTGVEFLKGIK
notes: Gene bought from GenScript, in pET21a; also called PD; His‐tagged PD; source: E. coli BL‐21*, IPTG induced; not shown: His6, N-terminal, kept
With B2, the “stoichiometry N” value is 2 and 4.
